Test: yeast display, Sf9 membrane polyspecificity reagent, FACS + sequencing; frameworks hold sequencing errors
Procedure, shortened: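 Galactose induction of a Saccharomyces cerevisiae BJ5465 synthetic nanobody display library ran 36–48 hours. The cells were then stained for 1 hour at 4 °C with 10% biotinylated, detergent-solubilized Sf9 membrane reagent, pulled down on streptavidin microbeads and FACS-sorted into low and high (top ~1%) gates on expression and reagent-binding fluorescence. Labels for polyreactivity follow the gate of origin.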

Row | Sequence | polyreactivity (PSR sort gate)
1 | QVQLVESGGGLVQAGGSLRLSCAASGFFFGFYAMGWYRQAPGKERELVASISGRGGRTSYADSVKGRFTISRDNAKITVYLQMNSLKPEDTAVYYCNKAGYGVSRKYDYWGQGTQVTVSS | high polyreactivity
2 | QVQLVESGGGLVQAGGSLRLSCAASGITFYRYVMGWYRQAPGKERELVAAITTGDSTYYADSVKGRFTISRDNAKNTVYLQMNSLKPEDTAVYFCAAVYYTALANYDYWGQGTQVTVSS | low polyreactivity
3 | QLQLVETGGGLVQAGGSLRLSCAASGYIFVYNDMGWSRQAPGKERELVAAITFSGGITYYADSVKGRFTISRDNAKNTVYLQMNSLKPEDTAVYYCAAADYWFYYGYYLTMDYWGQGTQVTVSS | low polyreactivity
4 | QVQLVESGGGLDQAGGSLRLSCAASGRIFEYNAMGWYRQAPGKERELVAAINYNDVSTYYADSVKGRFTISRDNAKNTVFFQINSLKPEDTAVYYCNVYGDKWSAAYGEYVYWGQGTQVTVSS | low polyreactivity
5 | QVQLVESGVGLVQAGGSLRLSCAASGSIFQGYAMGWYRQAPGKERELVAGITSSGGRTRYADSLKGRFTISRDNAKNTVYLQMNSLKPEDTAVYSCAADYVRHIGYNYWGQGNQVTVSS | high polyreactivity
6 | QVQLVESGGGLVQAGGSLRLSCAASGSTFYYYAMGWYRPAPGKERELVAAISSSGGITYYADSVKGRFTISRDNAKNTVYLQMNSLKPEDTAVYYCAADVIVFYYGPNYWGDIGYGYWGQGTQVTVSS | low polyreactivity
7 | QVQLVESGGGLVQAGGSLRLSCAASGRIFFYYAMGWYRQAPGKERELVAAISNSGGGTYYADSVKGRFTISRDNAKNTVYLQMNSLKPEDTAVYYCAREAGRYAYKYYWWQRPDYDYWGQGTQVTVSS | low polyreactivity
8 | QVQLVESGGGLVQAGGSLRLSCAASGRICWYYGLGWYRQAPGKERELVAAITTGGSTYADSVKGRFTISRDNAKNTVYLQMNSLKPEDPAVYYCAADGSYVWRNGWTYFYWGQGTQVTVSS | high polyreactivity
9 | QVQLVESGGGLVQAGGSLRLSCAASGIIFVYYAMGWYRQAPGKERELVAAISTGGTRTYYADSVKGRFTISRDNAKNTVYLQMNSLKPEDTAVYYCNARGRYRKSERRAFDYWGQGTQVTVSS | high polyreactivity
10 | QVQLVESGGGLVHAGGSLRLSCAASGITSPYSMGWYRQSPGKERELVAAISSGASTYYADTVKGRFTISRDNAKNTVYLQMNSLKPEVTAVYYCNRVTKRYPNIGNYWGQGTQVTLSS | high polyreactivity
11 | QVQLVESGGGLVQAGGSLRLSCAASGRIFTYNVMGWYRQAPGKERELVAAIYSSGVRTSYADSVKGRFTISRDNAKNTVYLHMNSLKPEDTALYYCAADKRYHYGLLHDPSYYYDYWGQGTQVTVSS | low polyreactivity
12 | QVQLVESGGGLVQAGGSLRLSCAASGFTFTRYAMGWYRQAPGKERELVATITKRGGSTYYADSVKGRFTISRDNAKNTVYLQMNSLKPEDTAVYYCAADGASRALYDYWGQGTQVTLSS | high polyreactivity
13 | QVQLVESGGGLVQAGGSLRLSCAASGSTFDSYAMGWYRQAPGKEREFVAAITWSGGRTYYADCVKGRFTISRDNAKNTVYLQMNSLKPEDTAVYDCSATDPWGWDYYYWGQGSQVTVSS | low polyreactivity
14 | QVQLVESGGGLVQAGGSLRLICAASGRTFWNYAMGWYRQAPGKERELVAVIRFSDGSTYYADSVKGRFTISRDNAKNTVYLQMNSLKPEDTAVYYCAAKGPRRWGSGFDYWGQGTQVTVSS | low polyreactivity
15 | QVQLVESGGGLVQAGGSLRLSCAASGSIFLYYAMGWYRQAPGKERELVAGINRVGSTNYADSVKGRFTISRDNAKNTVYLQMNSLKPEDTAVYYCNKRGTRSRRRGYWGQGTQVTVSS | low polyreactivity
16 | QVQLVESGGGLVQAGGSLRLSCAPTGFTIGWYAMGWYRQAPGKERELVATISWSGSSTYYADSVKGRFTISRDNAKNTVYLQMNSLKPEDTAVYYCNAVYGRFVVLRYDYWAQGTQVTVSS | high polyreactivity
17 | QVQLVESGGGLVQAGGRLRLSCAASGLTFYRNAMGWYRQAPGKERELVAAITTSGARTYYADSVKGRFTISRDNAKNTVYLRMNSLKPDVTAVYYCNAPVRRDVAYGYWGQGTQVTVSS | high polyreactivity
18 | QVQLVESGGGLVQAGGSLRLSCAASGRTYSNAMGWYRQAPGKELEFVASISSGGRTKDADSVKGRFTISRDNAKNTVYLQMNSLKPEDTADYYCNTVPGRYRTFDYWGQGTKVTVSS | high polyreactivity
19 | QVQLVESGGGLVQAGGSLRLSCAASGFIFSYYTMGWYRQAPGKERELVAAISRRGGSTYYADSVQGRFTISRDNAKNTVYLQRNSLKPEDTAVYYCAAPRDWDAGDYWGQGTQVTVSS | high polyreactivity
20 | QVQLVESGGGLLQAGGSLRLSCAASGFIFSLYAMGWYRQAPGKERELVASINRRGTSTFYADSVKGRFTISLDNAKKTVYLQMNSMKPEDTAVYYCNAYPVAAIRSTGSYDYWGQGTQVTVSS | low polyreactivity
21 | QVQLVESGGGLVQAGGSLRLSCAASGIIFRYNTMGWYRQEPGKERELVAAISWSGDSTYYADSVKGRFTISRDNAKNTVYLQMNSLKPEDTAVYYCARSQFSRSPSRMGYWGEGTQVTVSS | high polyreactivity
22 | QVQLVESGGGLVQAGGSLRLSCAASGSISGLYAMGWYRQAPGKESELVAAISFSGGSTYYADSVKGRFTISRDNAKNTVYFQMNSLKPEDTAVYYCAADGQYGGVPNTSEWTFDYWGQGTQVTVSS | low polyreactivity

Row | Sequence | polyreactivity (PSR sort gate)
23 | QVQLVESGGGLVQAGGSLRLSCAASGFTFYRNAMGWYRQAPWKERELVATITRSGGSKYYADSVKGRFTISRDNAKNTVYLQMNSLKPEDTEVYYCNDAISGVLVHGNYWGQGTQVTVSS | low polyreactivity
24 | QVQLVESGGGLVQAGGSLRLSCAASGSIFGHYAMGWYRQAPGKERELVAAISYSGGSTYYADSVKGRFTISRDNAKNTVYLQMNILKPEDTAVYYCNADLYDAGSEMDYWGQGTQVTVSS | high polyreactivity
25 | QVQLVESGGGLVQAGGSLRVSCAASGSIFDVYTMGWYRQAPGKERELVAAISKRSGRTYYADSVKGRFTISRDNAKNTVYLQMNSLKPEDTAVYYCAKDFGYWGQGTQVTVSS | low polyreactivity
26 | QVQLVESGGGLVQAGGSLRLICAASGRIFPSNAMGGSIQAPGKERELVAAINTGGSTYYADSVKGRFTISRDNAKNTVYLQMNSQKPEDTAVYYCAAARRYYYYWGQGTQVTVSS | high polyreactivity
27 | QVQVVDSGGGLVQAGGSLSLSCAASGSIFIYYAMGWYRQAPGKERELVAVINDDGSTNYADSVKGRFTISRDNAMNTVYLQMNSLKPEDTAVYYCNTTIGTYYSPSDYWGQGTQVTVSS | low polyreactivity
28 | QVQLVESGGGLVQAGGSLRLSCAASGRIFYLYGMGWYRQAPGKERELVAAIDWSDGSTYYADSVKGRFTISRDNAKNTVYLQMNSLKPEDTAVYYCAADGWAAWLYDYWGQGTQVTVSS | low polyreactivity
29 | QVQLVESGGGLVQAGGSLRLSCAASGSISDSNAMGSYRQAPGKERELVAAIDDSGGSTYYADSVKGRFTISRDNAKNTVYLQMNSLKPEDTAVYYCAKTKTQYLTSEIRFVYWGQGTQVTVSS | low polyreactivity
30 | QVQLVESGGGLVQAGGSLRLSCAASGLIFESYAMGWYRQAPRKERELFAAITRSGARTYYADSVKGRFSISRDNAKNTVYLQMNILKPEDTAVYYCAAAPWYFFDQYFNGISFGYYYWGQGTQLTVSS | high polyreactivity
31 | QVQLVESGGGLVQAGGSRRLSCAASGLIMDYYAMGWYRQAPGKERELVAAISSGGTDTYYADSVKGRFTITRDNAKNTVYLQMNSLKPEDTAVYYCAADSYWSAYDYWGQGTQVTVSS | low polyreactivity
32 | QVQLVESGGGLVQAGGSLRLICAASGSTFTGYAMGWYRQAPGKERELVAAISISGGRTFYADSVKGRFTISRDNAKNTVYLQMNSLKPEDTAVYYCAAFLRGSKYSFDYWGQGTQVTVSS | high polyreactivity
33 | QVQLVESGGGLVQAGGSLRLSCAASGSTLGGYAMGWYRQAPGKERELVAAISGSRGSTYYADSVKGRFTISRDNAKNTVYLQMTSLKPEDTAVYYCAAGSYWVQYQYDYWGQGTQVTVSS | low polyreactivity
34 | QVQLVESGGGLVQAGGSLRLSCAASGITVDSNAMGWYRQAPGKDRELVAAISSTGSTDYADSVKGRFTISRDNAKNTVYLQMNSLKPEDTAVYYCAADSRYYYYGYKISGDYDSWGQGTQVTVSS | low polyreactivity
35 | QVQLVESGGGLVQAGGSLRLSCAASGRTFSKYVMGWYRQAPGKERELVATITSGGSTYYADSVKGRFTISRDNAKNTVYLQMNSLKPEDTAVYYCAARIWYYNYWGQGTQVTVSS | high polyreactivity
36 | QDQLVESGGGLVQAGGSLRLRCAASGRTFYMYAMGWYRQAPGKERELDAVISPSGGPTYYADSVKGRFTISRDNAKNPGSLQMNSMKPEDTAVFYCATDYAYSPYRYWTRYDYWGLGTQVTVSS | high polyreactivity
37 | QVQLVESGGGLVQAGGSLRLSCAASGSTFLYYTMGWYRQAPGKERELVAAITSGGDTNYADSVKGRFTISRDNAKNTVYLQINSLKPEDTAVYYCNAEYTWSGTKIYTYKYDYWGQGTQVTVSS | low polyreactivity
38 | QVQLVESGGGLVQAGGSLRLSCAASGSTFEYNAMGGYRQAPGKERELVASSTNYADSVKGRFTISRDNAKKTVYLQMTSLKPEDTAVYYCAREQGVNRNHDYWGQGTQVTVSS | low polyreactivity
39 | QVQLVESRGGLVQAGGSLRLICAASANNYRYAMGWYRQAPAKEREFVAAISRGGSTFYADSVKGRFTISRDNAKNTVYEQMNRLKPEDSAVFYCDKERYNVYYYSGQGTQVTVSS | high polyreactivity
40 | QVQLVESGGGLVQAGGSLRLSCAASGSIFRVYAMGWYRQAPGKERELVAAISSSGDSTYYADSVKGRFTISRDNAKNTVYLQMNSLKPEDTAVYYCAADVKQRVKSSTMYYWGQGTQVTVSS | high polyreactivity
41 | QVQLVESGGGLVQAGGSLRLTCAASGSIFTTNAKGWYRPAPGTERELVASITWSGGSTYADSVKGRFTISRDNAKYTVYLQMNILKPEDTAVYYGATDPFYPVPPEYEYWGQGTQVTVSS | low polyreactivity
42 | QFQLEESGGGIVQAGGSLRLSCAASGSTFYYNAMGWYRQAPGKERDLVAAITGSGTGTNYADSVKGRFTISRDNAKITVYLQMNSLKTEDTAVYYCAADYVWRGDPINSYLSWYVYWGQGTQVTVSS | low polyreactivity
43 | QVQLVESGGGLVQAGGSLRLSCAASGRTFQGYSMGWYRQAPGKERELVAAISRSGGRTYYADSVKGRFTISRDNAKNTVYLQMNSLKPEDTAVYYCATDAFRDYGYWGQGTQVTVSS | high polyreactivity
